# Patent publication US20030008808
# Tested on: 30S ribosomal subunit (activated, mRNA-programmed; ribonucleoprotein)
# Assay: filter
# Conditions: CMN buffer
substance,measurement,setting,value
human ASLLys3(SUU),Kd,"s2U at position 34, poly(A)-programmed, also bound poly(AG)-programmed, 20 mM MgCl2",176 nM
native E. coli tRNALys(SUU),Kd,"native modifications incl. mnm5s2U34, poly(A)-programmed, 20 mM MgCl2, 100 mM NH4Cl, pH 7.2, 37 C then ice",70 nM
native yeast tRNAPhe(GmAA),Kd,"native modifications incl. Gm34, poly(U)-programmed, 20 mM MgCl2",103 nM
yeast ASLPhe(GAA),Kd,"poly(U)-programmed, 20 mM MgCl2",136 nM
